Laboratory results published in article PMC12416549 (2024).

Target: T1, TNFR1 (Homo sapiens, UniProt P19438)
T1 chain: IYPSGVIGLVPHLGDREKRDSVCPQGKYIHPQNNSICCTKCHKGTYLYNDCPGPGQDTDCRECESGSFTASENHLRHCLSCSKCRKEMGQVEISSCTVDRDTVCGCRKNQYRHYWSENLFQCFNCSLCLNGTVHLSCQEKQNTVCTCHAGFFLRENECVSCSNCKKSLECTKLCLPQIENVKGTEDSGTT
Assay: yeast display SC50

Row | Binder | apparent Kd (screen) [nM]
1 | L82W (designed binder) MTLQELLREEALRRAEAEAFRYALELLAEKFPEQKEYLLDLAEEIESQIRSLSGVDVEDVRKFLDKEWAWVKELLAEHPAEWAEVEAARAARLAELRAEVEAKVAA | 0.956
2 | E73Y (designed binder) MTLQELLREEALRRAEAEAFRYALELLAEKFPEQKEYLLDLAEEIESQIRSLSGVDVEDVRKFLDKEWAWVKYLLAEHPAELAEVEAARAARLAELRAEVEAKVAA | 0.539
3 | E95C (designed binder) MTLQELLREEALRRAEAEAFRYALELLAEKFPEQKEYLLDLAEEIESQIRSLSGVDVEDVRKFLDKEWAWVKELLAEHPAELAEVEAARAARLACLRAEVEAKVAA | 0.49
4 | L7H (designed binder) MTLQELHREEALRRAEAEAFRYALELLAEKFPEQKEYLLDLAEEIESQIRSLSGVDVEDVRKFLDKEWAWVKELLAEHPAELAEVEAARAARLAELRAEVEAKVAA | 7.07
5 | D65Q (designed binder) MTLQELLREEALRRAEAEAFRYALELLAEKFPEQKEYLLDLAEEIESQIRSLSGVDVEDVRKFLQKEWAWVKELLAEHPAELAEVEAARAARLAELRAEVEAKVAA | 0.79
6 | A87P (designed binder) MTLQELLREEALRRAEAEAFRYALELLAEKFPEQKEYLLDLAEEIESQIRSLSGVDVEDVRKFLDKEWAWVKELLAEHPAELAEVEPARAARLAELRAEVEAKVAA | 0.956
7 | D56Q (designed binder) MTLQELLREEALRRAEAEAFRYALELLAEKFPEQKEYLLDLAEEIESQIRSLSGVQVEDVRKFLDKEWAWVKELLAEHPAELAEVEAARAARLAELRAEVEAKVAA | 1.4
8 | E46A (designed binder) MTLQELLREEALRRAEAEAFRYALELLAEKFPEQKEYLLDLAEEIASQIRSLSGVDVEDVRKFLDKEWAWVKELLAEHPAELAEVEAARAARLAELRAEVEAKVAA | 0.49
9 | R61P (designed binder) MTLQELLREEALRRAEAEAFRYALELLAEKFPEQKEYLLDLAEEIESQIRSLSGVDVEDVPKFLDKEWAWVKELLAEHPAELAEVEAARAARLAELRAEVEAKVAA | 26.9
10 | F20G (designed binder) MTLQELLREEALRRAEAEAGRYALELLAEKFPEQKEYLLDLAEEIESQIRSLSGVDVEDVRKFLDKEWAWVKELLAEHPAELAEVEAARAARLAELRAEVEAKVAA | 0.869
11 | L38K (designed binder) MTLQELLREEALRRAEAEAFRYALELLAEKFPEQKEYKLDLAEEIESQIRSLSGVDVEDVRKFLDKEWAWVKELLAEHPAELAEVEAARAARLAELRAEVEAKVAA | 4.39
12 | L24W (designed binder) MTLQELLREEALRRAEAEAFRYAWELLAEKFPEQKEYLLDLAEEIESQIRSLSGVDVEDVRKFLDKEWAWVKELLAEHPAELAEVEAARAARLAELRAEVEAKVAA | 4.83
13 | S47A (designed binder) MTLQELLREEALRRAEAEAFRYALELLAEKFPEQKEYLLDLAEEIEAQIRSLSGVDVEDVRKFLDKEWAWVKELLAEHPAELAEVEAARAARLAELRAEVEAKVAA | 0.49
14 | S53P (designed binder) MTLQELLREEALRRAEAEAFRYALELLAEKFPEQKEYLLDLAEEIESQIRSLPGVDVEDVRKFLDKEWAWVKELLAEHPAELAEVEAARAARLAELRAEVEAKVAA | 13.8
15 | A42M (designed binder) MTLQELLREEALRRAEAEAFRYALELLAEKFPEQKEYLLDLMEEIESQIRSLSGVDVEDVRKFLDKEWAWVKELLAEHPAELAEVEAARAARLAELRAEVEAKVAA | 2.48
16 | S47D (designed binder) MTLQELLREEALRRAEAEAFRYALELLAEKFPEQKEYLLDLAEEIEDQIRSLSGVDVEDVRKFLDKEWAWVKELLAEHPAELAEVEAARAARLAELRAEVEAKVAA | 1.27
17 | P79S (designed binder) MTLQELLREEALRRAEAEAFRYALELLAEKFPEQKEYLLDLAEEIESQIRSLSGVDVEDVRKFLDKEWAWVKELLAEHSAELAEVEAARAARLAELRAEVEAKVAA | 0.593
18 | K66A (designed binder) MTLQELLREEALRRAEAEAFRYALELLAEKFPEQKEYLLDLAEEIESQIRSLSGVDVEDVRKFLDAEWAWVKELLAEHPAELAEVEAARAARLAELRAEVEAKVAA | 0.49

Row | Binder | apparent Kd (screen) [nM]
19 | H78K (designed binder) MTLQELLREEALRRAEAEAFRYALELLAEKFPEQKEYLLDLAEEIESQIRSLSGVDVEDVRKFLDKEWAWVKELLAEKPAELAEVEAARAARLAELRAEVEAKVAA | 0.446
20 | L38M (designed binder) MTLQELLREEALRRAEAEAFRYALELLAEKFPEQKEYMLDLAEEIESQIRSLSGVDVEDVRKFLDKEWAWVKELLAEHPAELAEVEAARAARLAELRAEVEAKVAA | 0.539
21 | T2Y (designed binder) MYLQELLREEALRRAEAEAFRYALELLAEKFPEQKEYLLDLAEEIESQIRSLSGVDVEDVRKFLDKEWAWVKELLAEHPAELAEVEAARAARLAELRAEVEAKVAA | 0.869
22 | E67D (designed binder) MTLQELLREEALRRAEAEAFRYALELLAEKFPEQKEYLLDLAEEIESQIRSLSGVDVEDVRKFLDKDWAWVKELLAEHPAELAEVEAARAARLAELRAEVEAKVAA | 4.83
23 | E33P (designed binder) MTLQELLREEALRRAEAEAFRYALELLAEKFPPQKEYLLDLAEEIESQIRSLSGVDVEDVRKFLDKEWAWVKELLAEHPAELAEVEAARAARLAELRAEVEAKVAA | 0.539
24 | V100L (designed binder) MTLQELLREEALRRAEAEAFRYALELLAEKFPEQKEYLLDLAEEIESQIRSLSGVDVEDVRKFLDKEWAWVKELLAEHPAELAEVEAARAARLAELRAELEAKVAA | 0.49
25 | V60F (designed binder) MTLQELLREEALRRAEAEAFRYALELLAEKFPEQKEYLLDLAEEIESQIRSLSGVDVEDFRKFLDKEWAWVKELLAEHPAELAEVEAARAARLAELRAEVEAKVAA | 0.49
26 | P79M (designed binder) MTLQELLREEALRRAEAEAFRYALELLAEKFPEQKEYLLDLAEEIESQIRSLSGVDVEDVRKFLDKEWAWVKELLAEHMAELAEVEAARAARLAELRAEVEAKVAA | 0.446
27 | V55D (designed binder) MTLQELLREEALRRAEAEAFRYALELLAEKFPEQKEYLLDLAEEIESQIRSLSGDDVEDVRKFLDKEWAWVKELLAEHPAELAEVEAARAARLAELRAEVEAKVAA | 9.41
28 | R14I (designed binder) MTLQELLREEALRIAEAEAFRYALELLAEKFPEQKEYLLDLAEEIESQIRSLSGVDVEDVRKFLDKEWAWVKELLAEHPAELAEVEAARAARLAELRAEVEAKVAA | 0.539
29 | E18Q (designed binder) MTLQELLREEALRRAEAQAFRYALELLAEKFPEQKEYLLDLAEEIESQIRSLSGVDVEDVRKFLDKEWAWVKELLAEHPAELAEVEAARAARLAELRAEVEAKVAA | 0.539
30 | R61E (designed binder) MTLQELLREEALRRAEAEAFRYALELLAEKFPEQKEYLLDLAEEIESQIRSLSGVDVEDVEKFLDKEWAWVKELLAEHPAELAEVEAARAARLAELRAEVEAKVAA | 2.73
31 | L75S (designed binder) MTLQELLREEALRRAEAEAFRYALELLAEKFPEQKEYLLDLAEEIESQIRSLSGVDVEDVRKFLDKEWAWVKELSAEHPAELAEVEAARAARLAELRAEVEAKVAA | 1.05
32 | R8G (designed binder) MTLQELLGEEALRRAEAEAFRYALELLAEKFPEQKEYLLDLAEEIESQIRSLSGVDVEDVRKFLDKEWAWVKELLAEHPAELAEVEAARAARLAELRAEVEAKVAA | 0.593
33 | E43L (designed binder) MTLQELLREEALRRAEAEAFRYALELLAEKFPEQKEYLLDLALEIESQIRSLSGVDVEDVRKFLDKEWAWVKELLAEHPAELAEVEAARAARLAELRAEVEAKVAA | 0.869
34 | L52Y (designed binder) MTLQELLREEALRRAEAEAFRYALELLAEKFPEQKEYLLDLAEEIESQIRSYSGVDVEDVRKFLDKEWAWVKELLAEHPAELAEVEAARAARLAELRAEVEAKVAA | 0.539
35 | E25S (designed binder) MTLQELLREEALRRAEAEAFRYALSLLAEKFPEQKEYLLDLAEEIESQIRSLSGVDVEDVRKFLDKEWAWVKELLAEHPAELAEVEAARAARLAELRAEVEAKVAA | 1.05
